The supplement of paper PMC10724198
± gives the standard deviation of the averaged measurements.

Legend:
[1] = system: Saccharomyces cerevisiae; experiment: protein stability index of tFT-peptide fusion (C-terminal peptide) (PSI (0-1 scale)); higher = more stable (slower turnover); conditions: genetic background: wild type; temperature: 30 C
[2] = system: Saccharomyces cerevisiae; experiment: as above
Protocol: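 MPS profiling in S. cerevisiae of the tFT-X12 degron library: putative degron peptides plus stable controls, 12 aa, fused to the C-terminus of a sfGFP-mCherry timer. Cells are FACS-sorted into 8 mCherry/sfGFP bins and deep-sequenced. PSI runs from 0 (unstable) to 1 (stable). Backgrounds are wild type, das1Δ and doa10Δ at 30 °C, and wild type, das1Δ, cdc34-1 and cdc53-1 at 37 °C; 2-3 technical replicates each.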

[3] = genetic background: cdc34-1, temperature: 37 C
[4] = genetic background: cdc53-1, temperature: 37 C
[5] = genetic background: das1 deletion, temperature: 30 C
[6] = genetic background: das1 deletion, temperature: 37 C
[7] = genetic background: doa10 deletion, temperature: 30 C
[8] = genetic background: wild type, temperature: 30 C
[9] = genetic background: wild type, temperature: 37 C
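Further: PSI is a weighted mean of sequencing reads over stability bins, variants kept only with over 10 reads, mCherry proximal and sfGFP distal, peptide attached via GGGS linker.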

Sequence | protein stability index [1] | protein stability index [2, 3] | protein stability index [2, 4] | protein stability index [2, 5] | protein stability index [2, 6] | protein stability index [2, 7] | protein stability index [2, 8] | protein stability index [2, 9]
RPAVVPPPFAPL | 0.76 ± 0.041 | 0.652 ± 0.032 | 0.724 ± 0.023 | 0.707 ± 0.0089 | 0.7172 ± 0.0055 | 0.708 ± 0.018 | 0.695 ± 0.01 | 0.6996 ± 0.003
CWILLFGCVWVG | 0.263 ± 0.0084 | 0.1785 ± 0.0003 | 0.335 ± 0.049 | 0.233 ± 0.023 | 0.397 ± 0.033 | 0.221 ± 0.015 | 0.234 ± 0.0095 | 0.336 ± 0.037
NYCLYFKLSRLS | 0.3897 ± 0.00059 | 0.62 ± 0.029 | 0.691 ± 0.016 | 0.603 ± 0.015 | 0.655 ± 0.021 | 0.221 ± 0.02 | 0.25 ± 0.017 | 0.429 ± 0.011
LRCCGALPLYAY | 0.348 ± 0.018 | 0.251 ± 0.038 | 0.248 ± 0.03 | 0.238 ± 0.038 | 0.3968 ± 0.0033 | 0.189 ± 0.014 | 0.228 ± 0.028 | 0.341 ± 0.022
AFTFLLCWLFGV | 0.467 ± 0.054 | 0.622 ± 0.024 | 0.671 ± 0.01 | 0.552 ± 0.018 | 0.627 ± 0.0065 | 0.453 ± 0.0068 | 0.454 ± 0.016 | 0.585 ± 0.041
NDVGGYFYVCSE | 0.578 ± 0.12 | 0.682 ± 0.013 | 0.749 ± 0.013 | 0.641 ± 0.012 | 0.7142 ± 0.0056 | 0.63 ± 0.011 | 0.648 ± 0.024 | 0.735 ± 0.023
GRGGLRVVVWLV | 0.189 ± 0.011 | 0.518 ± 0.069 | 0.642 ± 0.016 | 0.496 ± 0.024 | 0.6652 ± 0.0041 | 0.11 ± 0.017 | 0.123 ± 0.022 | 0.143 ± 0.0029
FWESHVLPYRLL | 0.239 ± 0.045 | 0.654 ± 0.036 | 0.78233 ± 0.00013 | 0.644 ± 0.014 | 0.7799 ± 0.0022 | 0.19 ± 0.008 | 0.223 ± 0.018 | 0.465 ± 0.028
IPHLNCCCCLVR | 0.442 ± 0.052 | 0.527 ± 0.013 | 0.497 ± 0.023 | 0.334 ± 0.035 | 0.5878 ± 0.0048 | 0.272 ± 0.0053 | 0.328 ± 0.02 | 0.5503 ± 0.0019
ESSRNILLWRTI | 0.443 ± 0.073 | 0.69 ± 0.041 | 0.7554 ± 0.00093 | 0.641 ± 0.048 | 0.755 ± 0.032 | 0.247 ± 0.046 | 0.264 ± 0.037 | 0.565 ± 0.018
FFSFFLSFRLWF | 0.449 ± 0.11 | 0.365 ± 0.061 | 0.298 ± 0.024 | 0.433 ± 0.038 | 0.456 ± 0.012 | 0.596 ± 0.04 | 0.429 ± 0.038 | 0.434 ± 0.058
GWVQFVKAAVLF | 0.36 ± 0.053 | 0.655 ± 0.063 | 0.7587 ± 0.0019 | 0.59 ± 0.031 | 0.73964 ± 3.5e-06 | 0.197 ± 0.0058 | 0.211 ± 0.043 | 0.4443 ± 0.0032
CKGPPVKFIVLM | 0.225 ± 0.057 | 0.614 ± 0.018 | 0.7111 ± 0.0044 | 0.597 ± 0.03 | 0.7359 ± 0.0039 | 0.135 ± 0.0034 | 0.147 ± 0.028 | 0.243 ± 0.023
GYACSIFYLRCV | 0.377 ± 0.014 | 0.535 ± 0.037 | 0.5771 ± 6.4e-05 | 0.496 ± 0.03 | 0.6266 ± 0.00063 | 0.218 ± 0.0038 | 0.23 ± 0.021 | 0.444 ± 0.016
TVGVGWVWVGVL | 0.467 ± 0.015 | 0.5667 ± 0.00058 | 0.611 ± 0.026 | 0.446 ± 0.026 | 0.649 ± 0.015 | 0.367 ± 0.0044 | 0.403 ± 0.015 | 0.576 ± 0.015
WGGIASLVASAA | 0.364 ± 0.0089 | 0.36 ± 0.049 | 0.437 ± 0.1 | 0.236 ± 0.033 | 0.411 ± 0.0061 | 0.214 ± 0.006 | 0.259 ± 0.019 | 0.378 ± 0.023
FLLYSILLAFLL | 0.436 ± 0.011 | 0.524 ± 0.034 | 0.503 ± 0.02 | 0.415 ± 0.033 | 0.546 ± 0.0071 | 0.37 ± 0.012 | 0.345 ± 0.033 | 0.492 ± 0.037
GPVRTEFWLYVW | 0.553 ± 0.18 | 0.651 ± 0.014 | 0.704 ± 0.022 | 0.55 ± 0.041 | 0.655 ± 0.011 | 0.57 ± 0.031 | 0.583 ± 0.049 | 0.626 ± 0.0066
FVRVFLRLGVVS | 0.299 ± 0.027 | 0.14 ± 0.024 | 0.17 ± 0.039 | 0.194 ± 0.035 | 0.302 ± 0.019 | 0.175 ± 0.0045 | 0.177 ± 0.022 | 0.256 ± 0.0033
FLLCGVFFFFFV | 0.4286 ± 0.0014 | 0.323 ± 0.0043 | 0.405 ± 0.046 | 0.288 ± 0.025 | 0.3092 ± 0.00041 | 0.344 ± 0.012 | 0.245 ± 0.032 | 0.319 ± 0.013

Sequence | protein stability index [1] | protein stability index [2, 3] | protein stability index [2, 4] | protein stability index [2, 5] | protein stability index [2, 6] | protein stability index [2, 7] | protein stability index [2, 8] | protein stability index [2, 9]
VGDVVWFGVGAG | 0.761 ± 0.023 | 0.733 ± 0.033 | 0.7757 ± 0.0042 | 0.662 ± 0.0049 | 0.782 ± 0.0084 | 0.662 ± 0.022 | 0.6566 ± 0.005 | 0.7438 ± 0.0022
HINRTIWARYQV | 0.362 ± 0.071 | 0.648 ± 0.069 | 0.742 ± 0.009 | 0.643 ± 0.033 | 0.75 ± 0.021 | 0.156 ± 0.019 | 0.174 ± 0.034 | 0.429 ± 0.032
LPLHTLLLCPPV | 0.493 ± 0.031 | 0.447 ± 0.037 | 0.459 ± 0.013 | 0.37 ± 0.03 | 0.4988 ± 0.003 | 0.345 ± 0.0046 | 0.382 ± 0.024 | 0.4782 ± 0.0033
GKWFSWNAIWIR | 0.145 ± 0.049 | 0.0949 ± 0.11 | 0.0354 ± 0.0075 | 0.101 ± 0.025 | 0.1 ± 0.02 | 0.6114 ± 0.0025 | 0.0762 ± 0.029 | 0.101 ± 0.046
SRSFFRRLLFCF | 0.396 ± 0.016 | 0.642 ± 0.033 | 0.7705 ± 0.0056 | 0.679 ± 0.022 | 0.8141 ± 0.0018 | 0.3352 ± 0.0008 | 0.352 ± 0.0083 | 0.4821 ± 0.0037
GVFFHFFFLFCF | 0.43 ± 0.013 | 0.332 ± 0.025 | 0.352 ± 0.01 | 0.324 ± 0.018 | 0.447 ± 0.0093 | 0.3913 ± 0.0038 | 0.297 ± 0.028 | 0.413 ± 0.0047
FLFLSPLALHVS | 0.304 ± 0.01 | 0.444 ± 0.03 | 0.494 ± 0.014 | 0.412 ± 0.022 | 0.513 ± 0.014 | 0.177 ± 0.0097 | 0.212 ± 0.024 | 0.256 ± 0.011
FCLGFRFFVFFL | 0.218 ± 0.032 | 0.26 ± 0.011 | 0.291 ± 0.018 | 0.271 ± 0.027 | 0.408 ± 0.013 | 0.208 ± 0.012 | 0.163 ± 0.022 | 0.288 ± 0.021
RIEGTLTARTAF | 0.579 ± 0.18 | 0.736 ± 0.069 | 0.7639 ± 0.0033 | 0.635 ± 0.033 | 0.744 ± 0.013 | 0.65 ± 0.01 | 0.66 ± 0.0097 | 0.709 ± 0.00092
LGVCLFFVRCWS | 0.174 ± 0.047 | 0.1796 ± 0.0014 | 0.205 ± 0.0098 | 0.189 ± 0.033 | 0.324 ± 0.019 | 0.159 ± 0.025 | 0.184 ± 0.033 | 0.271 ± 0.034
LDLSSLRCRYLL | 0.343 ± 0.099 | 0.639 ± 0.058 | 0.725 ± 0.034 | 0.657 ± 0.021 | 0.765 ± 0.021 | 0.185 ± 0.011 | 0.214 ± 0.014 | 0.427 ± 0.0081
SVHKYGFIKEIN | 0.531 ± 0.047 | 0.732 ± 0.026 | 0.70852 ± 0.00021 | 0.668 ± 0.061 | 0.761 ± 0.023 | 0.473 ± 0.035 | 0.474 ± 0.046 | 0.667 ± 0.016
RKRTILVIIVVK | 0.338 ± 0.061 | 0.181 ± 0.031 | 0.33 ± 0.042 | 0.234 ± 0.045 | 0.461 ± 0.05 | 0.186 ± 0.011 | 0.217 ± 0.046 | 0.395 ± 0.052
VWFFGVVLGGLW | 0.4443 ± 0.0021 | 0.527 ± 0.071 | 0.554 ± 0.0091 | 0.423 ± 0.031 | 0.584 ± 0.014 | 0.4157 ± 0.00077 | 0.421 ± 0.018 | 0.561 ± 0.03
ACVRLVLCVCRV | 0.339 ± 0.0039 | 0.281 ± 0.011 | 0.341 ± 0.042 | 0.237 ± 0.04 | 0.4091 ± 0.0036 | 0.211 ± 0.015 | 0.225 ± 0.028 | 0.375 ± 0.02
MRGPAWVCVLYS | 0.485 ± 0.028 | 0.637 ± 0.026 | 0.711 ± 0.012 | 0.59 ± 0.044 | 0.69291 ± 0.00012 | 0.284 ± 0.0086 | 0.339 ± 0.023 | 0.5348 ± 0.0048
SPIGIFCFILCR | 0.187 ± 0.049 | 0.0729 ± 0.011 | 0.0462 ± 0.023 | 0.153 ± 0.027 | 0.211 ± 0.016 | 0.176 ± 0.019 | 0.147 ± 0.038 | 0.157 ± 0.013
PPSPPPLSASVP | 0.578 ± 0.14 | 0.661 ± 0.04 | 0.698 ± 0.025 | 0.667 ± 0.053 | 0.698 ± 0.02 | 0.677 ± 0.024 | 0.669 ± 0.015 | 0.7 ± 0.0078
IERGLMLTLCVH | 0.22 ± 0.014 | 0.0536 ± 0.009 | 0.0716 ± 0.028 | 0.172 ± 0.027 | 0.205 ± 0.0033 | 0.115 ± 0.013 | 0.156 ± 0.024 | 0.171 ± 0.0059
